Reference: patent publication US20210275683A1 (SILVERBACK THERAPEUTICS, published 2021)
Where a chain is given by its changes, count along the chain named. Numbers in names are those of the source.

T1: human Nectin-4 on transfected HEK-293 cells (human, UniProt Q96NY8 32-510)
T1 construct: whole, on cells; also called HEK-293 cells transfected with human Nectin-4; Nectin-4-expressing HEK-293 cells
T1 sequence (looked up): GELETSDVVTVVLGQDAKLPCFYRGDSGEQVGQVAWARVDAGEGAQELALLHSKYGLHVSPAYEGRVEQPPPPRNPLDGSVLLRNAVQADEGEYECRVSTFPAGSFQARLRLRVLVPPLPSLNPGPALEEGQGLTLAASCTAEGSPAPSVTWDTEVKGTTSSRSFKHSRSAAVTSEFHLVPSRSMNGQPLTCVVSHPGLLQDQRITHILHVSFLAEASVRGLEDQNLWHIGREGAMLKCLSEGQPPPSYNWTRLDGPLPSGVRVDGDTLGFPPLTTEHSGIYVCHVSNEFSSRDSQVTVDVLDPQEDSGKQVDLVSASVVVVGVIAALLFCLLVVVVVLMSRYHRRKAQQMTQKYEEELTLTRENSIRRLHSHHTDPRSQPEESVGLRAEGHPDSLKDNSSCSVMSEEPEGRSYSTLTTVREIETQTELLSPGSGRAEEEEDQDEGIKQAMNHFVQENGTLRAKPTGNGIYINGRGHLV

T2: Nectin-4 on MDA-MB-175-VII tumor cells (UniProt Q96NY8 32-510, limits assumed)
T2 construct: whole, on cells
T2 sequence (looked up): T1 sequence (looked up)

T3: cynomolgus Nectin-4 on transfected HEK-293 cells (cynomolgus, UniProt A0A2K5WES1 32-510)
T3 construct: whole, on cells; also called HEK-293 cells transfected with cynomolgus Nectin-4
T3 sequence: T1 sequence (looked up) with V39A, I230V, A437T

T4: huNectin-1 ECD-hFc (human, UniProt Q15223 31-355)
T4 construct: extracellular domain; Bought (Sino Biological); also called hFc-tagged human Nectin-1 ECD dimeric protein; not shown: human Fc tag
T4 sequence (looked up): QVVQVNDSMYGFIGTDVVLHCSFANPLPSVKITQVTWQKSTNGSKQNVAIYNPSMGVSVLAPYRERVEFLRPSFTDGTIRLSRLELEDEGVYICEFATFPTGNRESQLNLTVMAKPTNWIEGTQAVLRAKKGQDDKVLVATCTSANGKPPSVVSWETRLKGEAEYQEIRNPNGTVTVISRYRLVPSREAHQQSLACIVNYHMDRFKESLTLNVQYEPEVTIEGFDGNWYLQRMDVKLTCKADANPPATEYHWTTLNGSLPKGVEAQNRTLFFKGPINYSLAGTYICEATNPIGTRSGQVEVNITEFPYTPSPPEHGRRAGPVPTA

T5: huNectin-2 ECD-hFc (human, UniProt Q92692 32-360)
T5 construct: extracellular domain; Bought (Sino Biological); also called hFc-tagged human Nectin-2 ECD dimeric protein; not shown: human Fc tag
T5 sequence (looked up): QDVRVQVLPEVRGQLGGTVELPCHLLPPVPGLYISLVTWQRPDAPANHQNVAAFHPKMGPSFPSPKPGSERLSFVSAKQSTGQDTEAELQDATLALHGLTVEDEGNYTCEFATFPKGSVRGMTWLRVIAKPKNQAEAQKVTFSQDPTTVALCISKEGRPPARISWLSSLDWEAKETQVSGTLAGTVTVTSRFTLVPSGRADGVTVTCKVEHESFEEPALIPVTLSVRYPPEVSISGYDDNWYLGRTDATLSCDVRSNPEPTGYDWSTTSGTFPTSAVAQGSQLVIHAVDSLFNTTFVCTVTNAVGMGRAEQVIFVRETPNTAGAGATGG

T6: huNectin-4 ECD-hFc (human, UniProt Q96NY8 32-349)
T6 construct: extracellular domain; Bought (Sino Biological); also called hFc-tagged human Nectin-4 ECD dimeric protein; human Nectin-4 ECD; not shown: human Fc tag
T6 sequence (looked up): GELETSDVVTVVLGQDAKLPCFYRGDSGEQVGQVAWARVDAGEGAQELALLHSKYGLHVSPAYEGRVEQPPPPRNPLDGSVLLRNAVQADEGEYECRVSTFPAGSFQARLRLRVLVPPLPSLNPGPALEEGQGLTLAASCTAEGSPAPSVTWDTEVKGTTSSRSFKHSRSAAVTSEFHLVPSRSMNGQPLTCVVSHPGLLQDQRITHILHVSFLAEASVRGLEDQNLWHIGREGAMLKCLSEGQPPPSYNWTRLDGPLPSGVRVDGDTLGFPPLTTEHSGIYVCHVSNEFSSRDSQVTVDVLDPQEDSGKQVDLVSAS

B1: hzD6.2C-Compound 2.14 (anti-Nectin-4-TLR8 agonist immunoconjugate) (antibody, V domains shown)
VH: EVQLVESGGGLVQPGGSLRLSCAASGFTFSNYDMSWVRQAPGKGLEWVATISSGGSYTYYVDSVKGRFTISRDNAKNSLYLQMNSLRAEDTAVYYCARQELGSYYAMDYWGQGTTVTVSS
VL: DIVMTQTPLSLPVTPGEPASISCRSSQSIVHSNANTYLEWYLQKPGQSPQLLIYKVSNRFSGVPDRFSGSGSGTDFTLKISRVEAEDVGVYYCFQGSHVPYTFGGGTKVEIKR
notes: hzD6.2C conjugated to linker-TLR8 agonist Compound 2.14
B2: humanized D6C mAb with hzD6.2C VL (G34A), human IgG1 / human kappa (antibody, V domains shown)
VH: B1 VH
VL: B1 VL
notes: also called hzD6.2C mAb
B3: humanized D6C mAb with hzD6.1C VL (I2V), human IgG1 / human kappa (antibody, V domains shown)
VH: B1 VH
VL: B1 VL with I2V, A34G
notes: also called hzD6.IC
B4: hzD6.1C-Compound 2.14 (anti-Nectin-4-TLR8 agonist immunoconjugate) (antibody, V domains shown)
VH: B1 VH
VL: B1 VL with I2V, A34G
notes: hzD6.1C conjugated to linker-TLR8 agonist Compound 2.14
B5: D6C IgG1-Compound 2.14 (parental antibody TLR8 agonist conjugate) (antibody, V domains shown)
VH: EVMLVESGGALVKPGGSLKLSCVASGFTFSNYDMSWVRQTPEKRLEWVATISSGGSYTYYVDSVKGRFTISRDNARNTLHLQMSSLRSKDTAMYYCARQELGSYYAMDYWGQGTSVTVSS
VL: DVVMTQTPLSLPVSLGDQASISCRSSQSIVHSNGNTYLEWYLQKPGQSPKLLIYKVSNRFSGVPDRFSGSGSGTDFTLKISRVEAEDLGVYYCFQGSHVPYTFGGGTKLEIK
notes: IgG1
B6: D6C parental chimeric anti-Nectin-4 antibody (D6C IgG1) (antibody, V domains shown)
VH: B5 VH
VL: B5 VL
notes: Called the parental chimeric antibody; also called chimeric D6C

Columns and labels:
[1] = target: T1, human Nectin-4 on transfected HEK-293 …; test: flow cytometry on HEK-293 cells transfected with human Nectin-4, anti-huIgG1-PE secondary, MFI (Geo Mean)
Experimental: (§1) After incubations, cells were washed with FW and then analyzed on a flow cytometer.

[2] = target: T2, Nectin-4 on MDA-MB-175-VII tumor cells; test: flow cytometry on MDA-MB-175-VII cells (Nectin-4 expressing tumor cell line), anti-huIgG1-PE secondary, MFI (Geo Mean)
Experimental: as §1

[3] = target: T3, cynomolgus Nectin-4 on transfected …; test: flow cytometry on HEK-293 cells transfected with cynomolgus Nectin-4, anti-huIgG1-PE secondary, MFI (Geo Mean)
Experimental: as §1

[4] = target: T2, Nectin-4 on MDA-MB-175-VII tumor cells; test: cell-based or functional assay
huNectin-1 ECD-hFc = target: T4, huNectin-1 ECD-hFc; test: BLI (Octet Red 96), biotinylated hzD6.2C on streptavidin biosensors, dimeric ECD-hFc in solution
Experimental: (§2) Analysis of hzD6.2C monoclonal antibody (mAb) for binding to human Nectin-1, Nectin-2, Nectin-3, and Nectin-4 extracellular domains (ECDs) was performed using Octet® Red 96 instrument (ForteBio, Inc.). Biotinylated hzD6.2C mAb was immobilized on streptavidin biosensors and incubated with hFc-tagged human Nectin-1, -2, -3, and -4 ECD dimeric proteins (Sino Biological) at varying concentrations ranging from 1.2 nM to 300 nM in PBS/1% BSA/0.2% Tween 20. The experimental measurements were performed as follows: (1) baseline acquisition (30 s); (2) biotinylated hzD6.2C mAb loading onto streptavidin biosensor (120 s); (3) second baseline acquisition (30 s); (4) association of interacting dimeric Nectin 1/2/3/4 ECD proteins for kₒₙ measurement (90 s); and (5) dissociation of interacting dimeric ECDs for koff measurement (180 s). The interacting dimeric Nectin ECD proteins were used at 5-6 concentrations of 3-fold concentration series. Data were analyzed using Octet® Data Analysis Sofware 9.0 (ForteBio, Inc.) and fitted to the 1:1 binding model. Equilibrium dissociation constants (KD) were calculated by the ratio of […].

huNectin-2 ECD-hFc = target: T5, huNectin-2 ECD-hFc; test: as above
Experimental: as §2

huNectin-3 ECD-hFc = target: T7, huNectin-3 ECD-hFc (human, UniProt Q9NQS3 58-404); test: as above
T7 construct: extracellular domain; Bought (Sino Biological); also called hFc-tagged human Nectin-3 ECD dimeric protein; not shown: human Fc tag
T7 sequence (Q9NQS3 58-404): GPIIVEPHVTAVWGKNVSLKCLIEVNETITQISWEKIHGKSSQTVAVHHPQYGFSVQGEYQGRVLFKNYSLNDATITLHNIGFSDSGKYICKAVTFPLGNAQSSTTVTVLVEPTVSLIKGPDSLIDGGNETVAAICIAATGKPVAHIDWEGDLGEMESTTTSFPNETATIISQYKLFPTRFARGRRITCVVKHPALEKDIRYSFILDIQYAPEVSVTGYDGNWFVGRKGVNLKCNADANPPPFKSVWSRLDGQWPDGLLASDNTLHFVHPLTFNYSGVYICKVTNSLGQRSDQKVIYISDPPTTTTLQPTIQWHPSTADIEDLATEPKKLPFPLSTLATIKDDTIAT
Experimental: as §2

huNectin-4 ECD-hFc = target: T6, huNectin-4 ECD-hFc; test: BLI (Octet Red 96), biotinylated hzD6.2C on streptavidin biosensors, dimeric ECD-hFc in solution, 1:1 model, KD with avidity
Experimental: as §2

| Binder | EC50 [1] | EC50 [2] | EC50 [3] | TNF-α production from human PBMCs co-cultured with MDA-MB-175-VII cells, EC50 [4] | binding result (huNectin-1 ECD-hFc) | binding result (huNectin-2 ECD-hFc) | binding result (huNectin-3 ECD-hFc) | Kd (huNectin-4 ECD-hFc) |
| --- | --- | --- | --- | --- | --- | --- | --- | --- |
| B1 | 0.034 µg/mL | 0.0095 µg/mL | 0.016 µg/mL | 0.37 nM | – | – | – | – |
| B2 | 0.014 µg/mL | 0.012 µg/mL | 0.017 µg/mL | – | no binding (tested: 1.2 nM to 300 nM) | no binding (tested: 1.2 nM to 300 nM) | no binding (tested: 1.2 nM to 300 nM) | < 0.001 nM |
| B3 | 0.02 µg/mL | 0.0097 µg/mL | 0.016 µg/mL | – | – | – | – | – |
| B4 | 0.069 µg/mL | 0.0086 µg/mL | 0.023 µg/mL | 0.33 nM | – | – | – | – |
| B5 | 0.049 µg/mL | 0.011 µg/mL | 0.019 µg/mL | 0.83 nM | – | – | – | – |
| B6 | 0.03 µg/mL | 0.01 µg/mL | 0.018 µg/mL | – | – | – | – | – |
